System: Example (8): 1-[3-(D-Alanyl-L-alanyl-L-alanyl-L-leucyl-glycyl-L-leucyl-L-prolylamino)-propylamino]anthraquinone trifluoroacetate

Sequence of human recombinant MMP-9 (chain, as listed by the source): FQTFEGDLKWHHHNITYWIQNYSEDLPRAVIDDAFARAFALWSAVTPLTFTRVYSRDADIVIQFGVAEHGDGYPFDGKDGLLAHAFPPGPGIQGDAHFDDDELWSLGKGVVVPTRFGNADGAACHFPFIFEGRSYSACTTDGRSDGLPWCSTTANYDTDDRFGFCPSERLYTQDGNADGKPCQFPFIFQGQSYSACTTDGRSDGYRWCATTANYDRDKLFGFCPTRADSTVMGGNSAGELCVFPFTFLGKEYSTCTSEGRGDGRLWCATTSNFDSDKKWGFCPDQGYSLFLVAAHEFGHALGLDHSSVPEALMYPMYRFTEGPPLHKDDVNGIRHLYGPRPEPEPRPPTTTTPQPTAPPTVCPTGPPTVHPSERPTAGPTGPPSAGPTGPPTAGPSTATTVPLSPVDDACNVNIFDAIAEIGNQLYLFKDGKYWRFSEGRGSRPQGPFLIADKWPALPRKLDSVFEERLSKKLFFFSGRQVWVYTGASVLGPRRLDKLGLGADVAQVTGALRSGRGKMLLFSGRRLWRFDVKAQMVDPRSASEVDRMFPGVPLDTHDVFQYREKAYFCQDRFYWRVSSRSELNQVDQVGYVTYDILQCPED

Substance: human recombinant MMP-9
- cleavage of the peptide conjugate by the enzyme, followed by HPLC and MS/MS: cleavage to anthraquinonyl, spacer-linked tripeptide Example 4
